The target of the experiment is hepatitis C virus in patient serum. The experiment is described as follows: immobilized adsorbent shaken with HCV patient serum 37 C 2 h; HCV RNA in supernatant against saline control.

As for “peptide having the amino acid sequence of 57 residues in the C3 domain of protein G with cysteine ad”, the Adsorption rate (%) was found to be 28%. The result for “protein G (Pharmacia LKB) (from UniProt P19909 303-497)” reads 82%.

Source of the values: patent US20040006214A1.
